Broadly, the IC50 is the concentration that gives 50% inhibition.

The target of this experiment is human FcRn mut (L320A, L321A) co-transfected with human β2M, stably overexpressed on HEK293 cells (human) (UniProt P55899). Nature of the experiment: flow cytometry competition, Argx-113 against biotin-hIgG (100 μg/mL) on HEK293 cells overexpressing human FcRn mut, pH 6.0. (Flow cytometry measures light scatter and fluorescence of single cells or particles in a stream.)
Chain of human FcRn mut (L320A, L321A) co-transfected with human β2M, stably overexpressed on HEK293 cells (human) (P55899 24-365 L343A/L344A, chain 1 of 2): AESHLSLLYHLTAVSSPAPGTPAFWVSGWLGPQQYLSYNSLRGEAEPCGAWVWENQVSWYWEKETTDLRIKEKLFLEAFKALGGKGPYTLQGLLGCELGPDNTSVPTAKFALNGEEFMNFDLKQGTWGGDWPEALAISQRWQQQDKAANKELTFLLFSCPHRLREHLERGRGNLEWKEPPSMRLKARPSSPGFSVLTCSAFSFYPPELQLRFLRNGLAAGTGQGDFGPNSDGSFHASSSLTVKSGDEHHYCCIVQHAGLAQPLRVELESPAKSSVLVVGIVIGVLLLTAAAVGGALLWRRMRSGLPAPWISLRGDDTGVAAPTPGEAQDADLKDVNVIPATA
Chain of human FcRn mut (L320A, L321A) co-transfected with human β2M, stably overexpressed on HEK293 cells (human) (P61769 21-119, chain 2 of 2, further chain): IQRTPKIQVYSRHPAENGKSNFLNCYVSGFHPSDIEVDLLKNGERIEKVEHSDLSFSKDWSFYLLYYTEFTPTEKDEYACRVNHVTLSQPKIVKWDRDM

The substance Argx-113 gave an IC50 of 9.77 nM.

Source of the values: patent WO2021160116A1.
